Kd data for four molecules are collected here from patent US20150045310A1 (published 2015).

The target in assay [1] is T1, Mcl-1 (biotinylated pro-survival Bcl-2 family protein) (UniProt Q07820 171-327, biotinylated (co-expressed E. coli biotin ligase BirA)).
T1 chain: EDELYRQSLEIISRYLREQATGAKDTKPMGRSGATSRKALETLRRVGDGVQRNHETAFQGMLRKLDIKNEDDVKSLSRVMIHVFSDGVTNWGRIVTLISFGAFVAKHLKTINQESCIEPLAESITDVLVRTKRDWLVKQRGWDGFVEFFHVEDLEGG
Kind of assay: cell surface display FACS titration; apparent Kd.

For assay [2], the target named is T2, A1 (biotinylated pro-survival Bcl-2 family protein) (UniProt Q16548 1-152, biotinylated (co-expressed E. coli biotin ligase BirA)).
T2 chain: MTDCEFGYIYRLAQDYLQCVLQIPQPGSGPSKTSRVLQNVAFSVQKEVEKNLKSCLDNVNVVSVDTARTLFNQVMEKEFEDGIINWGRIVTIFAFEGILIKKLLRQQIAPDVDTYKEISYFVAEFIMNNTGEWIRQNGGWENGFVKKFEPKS
Kind of assay: flow cytometry, bacterial surface display (eCPX); apparent Kd; FIG. 7AH.

Assay [3] deals with Bcl-2 (biotinylated pro-survival Bcl-2 family protein) (UniProt P10415 1-217, biotinylated (co-expressed E. coli biotin ligase BirA)). Nature of the assay: cell surface display FACS titration; apparent Kd.
Chain of Bcl-2 (biotinylated pro-survival Bcl-2 family protein) (P10415 1-217): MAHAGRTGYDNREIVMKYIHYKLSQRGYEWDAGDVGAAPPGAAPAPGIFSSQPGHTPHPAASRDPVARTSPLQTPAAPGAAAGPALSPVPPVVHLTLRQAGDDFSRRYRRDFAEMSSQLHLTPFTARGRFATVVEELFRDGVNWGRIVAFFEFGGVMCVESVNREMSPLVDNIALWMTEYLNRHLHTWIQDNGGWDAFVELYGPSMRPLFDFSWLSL

Where no end group is shown, it is not given here. eCPX = enhanced circularly permuted OmpX display scaffold; linker = not defined here

Regarding WIAQLLRRIGDEFN [Bim BH3 14-mer E151L displayed on eCPX], the Kd in assay [1] turned out to be 17.8 nM.
In the case of WLAQLLRRYGDEFN (also: displayed as fusion to eCPX scaffold (letters not given here)) [Bim BH3 14-mer variant X2-8 displayed on eCPX], in assay [2], the Kd was 5.8 nM.

B1: Bim BH3 14-mer variant M2-2 displayed on eCPX (peptide)
peptide: WVAQLLRRIGDEVN-{linker-eCPX}
modifications: reading uncertain; also: printed as Trp-Val-Ala-Gln-Leu-Leu-Arg-Arg-Ile-Gly-Asp-Glu-Val-Asn
Regarding B1, in assay [3], the Kd is greater than 10000 nM.
On to WIAQTLRRIGDEFN [Bim BH3 14-mer E151T displayed on eCPX], for which the Kd in assay [1] came to 33.2 nM.
